Data from patent publication US8586548B2, “NAP alpha-aminoisobutyric acid analog with neuroprotective activity” (Ramot at Tel-Aviv University, Ltd., priority 2009, dated 2013).
Entries after “also recorded” stand apart in the source; their conditions may differ. Non-standard residues stand in square brackets, D forms with d. No end group written: not given here. Aib = CC(C)(N)C(=O)O

What was measured:
[1] = target: VQIVYK (SEQ ID NO:10) peptide derived from tau (Homo sapiens, UniProt P10636); experiment: In vitro tau-like VQIVYK aggregation assay (Thioflavin S); format: biochemical
Description: In the presence of polyglutamic acid (or heparin), VQIVYK (SEQ ID NO:10) aggregates which can be further detected by Thioflavin S (excitation 485 nm and emission 535) with emission intensity greatly increasing.
First, different concentrations of polyglutamic acid (0, 100 μM, 250 μM, and 400 μM) VQIVYK (SEQ ID NO:10) and either […] (NH4Ac) 50 mM pH 6.5 or MOPS 20 mM pH 6.5 and Thioflavin S 5 μM were mixed together and incubated at room temperature. The extent of aggregation was read at excitation 485 nm and emission 535 nm using the infinite 200 system with the Magellan program.
The peptides were added at a range of concentrations (10^−17-10^−9 M) and the extent of aggregation of 100 μM VQIVYK (SEQ ID NO:10) was tested in the presence of polyglutamate 250 μM in MOPS 20 μM, pH 6.5 for 7 days.
In order to avoid reading self peptide aggregation as VQIVYK aggregation, for each peptide concentration, the fluorescence of the peptide solution without VQIVYK was subtracted from the fluorescence of each peptide concentration containing VQIVYK.

[2] = test system: ADNP heterozygous male mice; experiment: Passive avoidance test; format: in vivo, mouse
Description: The heterozygous ADNP mice were generated as before (Pinhasov et al., Brain Res. Dev. Brain Res. 2003, 144:83-90; and Vulih-Shultzman et al., J Pharmacol Exp Ther. 2007, 323(2):438-49). To avoid any variability in results associated with the estrous cycle in females, only ADNP^+/− male mice are use for behavioral experiments.
Iso-NAP (NAXaaVSIXaaQ; SEQ ID NO:1) was dissolved in a vehicle solution, in which each milliliter included 7.5 mg of NaCl, 1.7 mg of citric acid monohydrate, 3 mg of disodium phosphate dihydrate, and 0.2 mg of benzalkonium chloride solution (50%). Iso-NAP or vehicle solution (DD) was administered to mice handheld in a semi-supine position with nostrils facing the investigator. A pipette tip was used to administer 2.5 μl/each nostril. The mouse was handheld until the solution is entirely absorbed. Nasal Iso-NAP application was performed daily, once a day, for 2 weeks for the Morris water maze test. In the 2nd week, Iso-NAP was applied 1 h before the daily test (see below), which was conducted for 5 consecutive days. In the passive avoidance test, all mice were treated for a total of 7 days, on the 7th day of treatment the test began. Iso-NAP was applied 1 h before the test.
The passive avoidance task is a fear-motivated avoidance task based on the mouse conflict between avoiding the light stimulus and approaching the dark chamber in which a painful shock is given. The mouse learns to refrain from stepping through a door to an apparently safer but previously punished dark compartment. The latency to refrain from crossing into the punished compartment serves as an index of the ability to avoid, and allows memory to be assessed (Johns Hopkins University, Department of Psychological and Brain Sciences, website: nbc.jhu.edu/protocols/PassiveAvoidanceProtocol.aspx). […]
The experiment is carried out for three days. […] The time to enter the dark compartment is recorded. […] The door is opened after 30 seconds, and the time it takes the mouse to enter the dark chamber is recorded. […] After 30 seconds (T0), the door is opened and the latency to enter the dark chamber is recorded. […]

[3] = 100 μM VQIVYK, polyglutamate 250 μM, MOPS pH 6.5, 7 days, FIG. 4, p<0.0005 vs. control, listed as IsoNAP

For “NAXaaVSIXaaQ (NA[Aib]VSI[Aib]Q) [Alpha-aminoisobutyric NAP, both prolines of NAP substituted]”, the “inhibition of tau aggregation at 10^−13M” value [1, 3] was “remains effective; also recorded: more effective than NAP”, the “inhibition of tau aggregation at 10^−17M” value [1, 3] was “more potent; also recorded: more effective than NAP” and the “prevention of tau aggregation (overall)” value ([1]; peptides at 10^−17-10^−9 M) was “effective for preventing tau aggregation”. The “latency to enter the dark room at T0 and T30 vs T-trial” value ([2]; 2 μg/mice intranasal, P<0.05) was “entered the dark room significantly slower than on the T-trial”, the “effect on learning and memory (conclusion)” value ([2]; 2 μg/mice, conclusion from Morris water maze and passive avoidance tests) was “seems to affect positively learning and memory” and the “latency to enter the dark room” value ([2]; 30 μg/mice intranasal) was “entered the dark room faster than the NAP2 group”.
